Read-outs that look alike come from different tables or passages of the source. Bridges are numbered along the chain shown (N, C = ends). [ ]: non-standard residue; d: D form. dPhe(4-F) = N[C@H](Cc1ccc(F)cc1)C(=O)O; Nle = CCCC[C@H](N)C(=O)O
Experiments:
Assay in all cases: cell-based or functional assay
[1] = biological target: melanocortin receptor-5 (MC5r), assay other than CEREP
[2] = biological target: T1, human melanocortin receptor-5 (MC5), on CHO-K1 cells, CEREP assay 1869 (human, UniProt P33032 1-325)
[3] = biological target: T2, melanocortin receptor-1 (MC1r), native on the mouse B16-F10 cell line (mouse, UniProt Q01727 1-315)
[4] = biological target: T3, melanocortin receptor-3 (MC3r), recombinant on HEK-293 cells
[5] = biological target: T4, melanocortin receptor-1 (MC1r), native on the human HBL cell line (human, UniProt Q01726 1-317)
[6] = biological target: T5, melanocortin receptor-4 (MC4r), recombinant on HEK-293 cells (human, UniProt P32245 1-332)
[7] = biological target: melanocortin receptor-5 (MC5r), assay other than CEREP; remark: listed apart in the source
[8] = biological target: T1, human melanocortin receptor-5 (MC5), on …; remark: listed apart in the source
[9] = biological target: T2, melanocortin receptor-1 (MC1r), native …; remark: listed apart in the source
[10] = biological target: T3, melanocortin receptor-3 (MC3r), …; remark: listed apart in the source
[11] = biological target: T4, melanocortin receptor-1 (MC1r), native …; remark: listed apart in the source
[12] = biological target: T5, melanocortin receptor-4 (MC4r), …; remark: listed apart in the source

T2 sequence (Q01727 whole entry): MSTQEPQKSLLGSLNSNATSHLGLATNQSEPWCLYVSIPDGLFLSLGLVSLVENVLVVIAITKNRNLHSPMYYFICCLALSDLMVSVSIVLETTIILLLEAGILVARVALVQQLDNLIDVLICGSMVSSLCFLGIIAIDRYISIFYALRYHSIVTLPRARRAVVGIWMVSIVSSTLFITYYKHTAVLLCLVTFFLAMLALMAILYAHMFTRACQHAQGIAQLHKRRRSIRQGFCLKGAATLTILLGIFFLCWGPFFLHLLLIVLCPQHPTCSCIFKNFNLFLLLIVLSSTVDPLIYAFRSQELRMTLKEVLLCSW
Chain of melanocortin receptor-5 (MC5r), assay other than CEREP (P33032 whole entry): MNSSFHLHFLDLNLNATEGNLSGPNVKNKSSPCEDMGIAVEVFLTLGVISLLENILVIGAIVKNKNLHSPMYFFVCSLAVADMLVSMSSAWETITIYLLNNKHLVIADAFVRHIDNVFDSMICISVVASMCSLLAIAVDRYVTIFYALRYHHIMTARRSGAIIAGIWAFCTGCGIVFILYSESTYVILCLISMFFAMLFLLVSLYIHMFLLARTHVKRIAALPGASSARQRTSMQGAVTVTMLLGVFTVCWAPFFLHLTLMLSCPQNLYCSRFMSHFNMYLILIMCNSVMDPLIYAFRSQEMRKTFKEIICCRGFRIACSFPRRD
T1 sequence (P33032 whole entry): as above
T5 sequence (P32245 whole entry): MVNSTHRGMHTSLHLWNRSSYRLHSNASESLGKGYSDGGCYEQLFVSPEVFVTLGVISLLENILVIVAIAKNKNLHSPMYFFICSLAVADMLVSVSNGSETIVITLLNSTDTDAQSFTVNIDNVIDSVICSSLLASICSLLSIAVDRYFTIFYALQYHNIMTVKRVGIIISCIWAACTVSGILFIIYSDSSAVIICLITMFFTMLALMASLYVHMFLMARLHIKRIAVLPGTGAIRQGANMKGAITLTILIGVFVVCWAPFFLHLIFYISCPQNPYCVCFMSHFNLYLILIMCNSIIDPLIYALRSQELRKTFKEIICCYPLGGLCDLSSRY
T4 sequence (Q01726 whole entry): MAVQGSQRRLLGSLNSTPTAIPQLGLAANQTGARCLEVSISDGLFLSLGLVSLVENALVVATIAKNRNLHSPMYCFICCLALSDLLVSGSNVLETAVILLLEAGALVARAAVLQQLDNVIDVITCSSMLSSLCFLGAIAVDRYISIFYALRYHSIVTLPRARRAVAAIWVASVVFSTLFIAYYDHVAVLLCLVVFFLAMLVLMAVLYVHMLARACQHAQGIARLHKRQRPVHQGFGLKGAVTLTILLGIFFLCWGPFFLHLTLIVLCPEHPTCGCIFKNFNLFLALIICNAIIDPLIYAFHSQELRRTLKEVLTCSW
T3 sequence (P41968 whole entry): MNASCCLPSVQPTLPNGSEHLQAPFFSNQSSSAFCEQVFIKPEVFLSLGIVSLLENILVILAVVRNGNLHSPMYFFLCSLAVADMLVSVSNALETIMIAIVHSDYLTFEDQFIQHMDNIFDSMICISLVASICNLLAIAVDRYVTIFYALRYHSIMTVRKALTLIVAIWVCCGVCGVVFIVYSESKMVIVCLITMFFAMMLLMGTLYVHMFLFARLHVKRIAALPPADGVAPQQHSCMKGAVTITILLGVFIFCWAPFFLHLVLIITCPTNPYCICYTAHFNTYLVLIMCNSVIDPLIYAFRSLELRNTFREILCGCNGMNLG

EC50 [1]: 0.15 nM
Fold Peptide No. 60 More Potent Than α-MSH (ratio of EC50 values) [1]: 686 fold
EC50 (nM), cAMP production, HTRF, CEREP [2]: 0.39 nM
Fold Peptide No. 60 More Potent Than α-MSH (ratio of EC50 values, CEREP) [2]: 930 fold
EC50 (nM), cAMP accumulation [3]: 0.02 nM
Fold Peptide No. 60 More Potent Than α-MSH (ratio of EC50 values) [3]: 11 fold
EC50 (nM), cAMP accumulation [4]: 0.77 nM
Fold Peptide No. 60 More Potent Than α-MSH (ratio of EC50 values) [4]: 3.9 fold
EC50 (nM), cAMP accumulation [5]: 0.13 nM
Fold Peptide No. 60 More Potent Than α-MSH (ratio of EC50 values) [5]: 69 fold
EC50 (nM), cAMP accumulation [6]: 2 nM
Fold Peptide No. 60 More Potent Than α-MSH (ratio of EC50 values) [6]: 1.5 fold
EC50 [7]: 0.15 nM
Fold Peptide No. 60 More Potent Than Bremelanotide (ratio of EC50 values) [7]: 22500 fold
EC50 (nM), cAMP production, HTRF, CEREP [8]: 0.39 nM
Fold Peptide No. 60 More Potent Than Bremelanotide (ratio of EC50 values, CEREP) [8]: > 25000 fold
EC50 (nM), cAMP accumulation [9]: 0.02 nM
Fold Peptide No. 60 More Potent Than Bremelanotide (ratio of EC50 values) [9]: 5 fold
EC50 (nM), cAMP accumulation [10]: 0.77 nM
Fold Peptide No. 60 More Potent Than Bremelanotide (ratio of EC50 values) [10]: 4 fold
EC50 (nM), cAMP accumulation [11]: 0.13 nM
Fold Peptide No. 60 More Potent Than Bremelanotide (ratio of EC50 values) [11]: 0.78 fold
EC50 (nM), cAMP accumulation [12]: 2 nM
Fold Peptide No. 60 More Potent Than Bremelanotide (ratio of EC50 values) [12]: 0.5 fold
B1: Peptide No. 60, Ac-Nle-cyclo(Glu-His-D-Phe(4-F)-Arg-Trp-NH-(CH2)4-NH) (peptide)
peptide: Ac-[Nle]EH[dPhe(4-F)]RW
modifications: bridge 2-C; not fully specified (C-terminus, bridges); printed as Ac-Nle-cyclo(Glu-His-D-Phe(4-F)-Arg-Trp-NH-(CH2)4-NH)

— patent US12692291 (PALATIN TECHNOLOGIES, dated 2026)
